In article PMC4837482, “The complex binding mode of the peptide hormone H2 relaxin to its receptor RXFP1” (Nature Communications, 2016):
Where no end group is shown, it is not given here. The star is where a group is joined. DTPA = O=C(O)CN(CCN(CC(=O)O)CC(=O)O)CCN(CC(=O)O)CC(=O)*

T1: RXFP1 F50A^ins (Homo sapiens, UniProt Q9HBX9, INS72A)
T1 construct: transiently transfected human embryonic kidney (HEK) 293T cells expressing full-length RXFP1 and mutants; expressed in transfected cells; host or cells: HEK293T
T1 sequence (Q9HBX9 with tags, fused parts or gaps INS72A limits assumed): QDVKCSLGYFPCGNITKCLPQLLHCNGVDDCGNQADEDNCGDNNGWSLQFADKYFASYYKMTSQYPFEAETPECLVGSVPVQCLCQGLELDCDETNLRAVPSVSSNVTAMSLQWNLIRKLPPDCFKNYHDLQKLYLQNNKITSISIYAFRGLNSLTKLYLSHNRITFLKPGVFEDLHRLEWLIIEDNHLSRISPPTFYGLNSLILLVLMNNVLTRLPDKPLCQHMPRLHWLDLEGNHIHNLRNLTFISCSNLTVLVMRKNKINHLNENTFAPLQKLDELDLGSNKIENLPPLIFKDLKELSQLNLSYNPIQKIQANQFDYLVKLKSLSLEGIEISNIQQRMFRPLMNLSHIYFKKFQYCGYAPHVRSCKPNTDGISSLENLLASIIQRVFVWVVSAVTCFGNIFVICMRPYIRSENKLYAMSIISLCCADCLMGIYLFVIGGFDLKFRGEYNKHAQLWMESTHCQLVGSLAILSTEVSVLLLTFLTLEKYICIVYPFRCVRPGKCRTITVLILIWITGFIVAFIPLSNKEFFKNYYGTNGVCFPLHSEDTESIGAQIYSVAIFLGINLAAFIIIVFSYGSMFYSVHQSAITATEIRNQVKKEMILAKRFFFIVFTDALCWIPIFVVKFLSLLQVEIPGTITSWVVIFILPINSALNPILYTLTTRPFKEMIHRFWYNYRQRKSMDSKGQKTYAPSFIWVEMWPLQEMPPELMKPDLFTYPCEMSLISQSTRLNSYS

T2: RXFP1 D51A, full length (human)
T2 sequence (Q9HBX9 1-757 with D51A, looked up): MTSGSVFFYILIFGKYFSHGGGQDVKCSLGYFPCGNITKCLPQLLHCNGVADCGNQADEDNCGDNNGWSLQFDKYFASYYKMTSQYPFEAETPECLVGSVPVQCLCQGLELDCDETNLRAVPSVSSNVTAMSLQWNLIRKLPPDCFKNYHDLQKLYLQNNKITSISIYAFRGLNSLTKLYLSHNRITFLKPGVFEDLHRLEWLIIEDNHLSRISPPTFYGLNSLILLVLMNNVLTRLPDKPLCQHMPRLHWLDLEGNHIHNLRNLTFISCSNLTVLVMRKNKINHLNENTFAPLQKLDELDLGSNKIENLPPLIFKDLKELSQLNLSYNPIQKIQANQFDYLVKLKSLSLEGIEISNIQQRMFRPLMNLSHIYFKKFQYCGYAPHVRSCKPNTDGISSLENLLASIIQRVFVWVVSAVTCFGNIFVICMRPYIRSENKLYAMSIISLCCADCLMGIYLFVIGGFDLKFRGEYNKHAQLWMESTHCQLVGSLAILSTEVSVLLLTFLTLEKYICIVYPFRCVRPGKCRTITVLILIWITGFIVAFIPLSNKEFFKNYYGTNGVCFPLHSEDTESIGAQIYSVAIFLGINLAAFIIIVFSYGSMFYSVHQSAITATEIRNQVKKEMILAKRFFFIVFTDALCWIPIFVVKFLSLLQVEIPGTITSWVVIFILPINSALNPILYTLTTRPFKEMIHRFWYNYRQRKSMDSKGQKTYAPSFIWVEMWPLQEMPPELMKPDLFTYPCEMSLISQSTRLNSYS


Legend:
RXFP1 F50A^ins = molecular target: T1, RXFP1 F50A^ins; assay: Eu-H2 relaxin saturation binding assay, transfected HEK293T cells; details: F50A^Ins-RXFP1 versus wild-type RXFP1
[1] = molecular target: RXFP1 Y58A, full length (human); assay: europium-labelled ligand saturation binding on cells (time-resolved fluorescence); HEK293T cells transiently transfected with receptor, 96-well plates; increasing Eu-H2 relaxin (maximum 15 nM) with or without 1 μM unlabelled H2 relaxin, 1 h, room temperature; 20 mM HEPES pH 7.5, […] CaCl2, 50 mM NaCl, 0.01% NaN3, 1% BSA; one-site fit
[2] = molecular target: RXFP1 C40A^ins, full length (human); assay: as above
[3] = molecular target: RXFP1 G41A, full length (human); assay: as above
[4] = molecular target: RXFP1 A55S, full length (human); assay: as above
[5] = molecular target: RXFP1 M60A, full length (human); assay: as above
[6] = molecular target: RXFP1 N43A/N44A, full length (human); assay: as above
[7] = molecular target: T2, RXFP1 D51A, full length (human); assay: as above

Row | Molecule | loss of binding to H2 relaxin (RXFP1 F50A^ins) | Kd [1] | Kd [2] | Kd [3] | Kd [4] | Kd [5] | Kd [6] | Kd [7]
1 | H2 relaxin: two-chain 6-kDa peptide hormone structurally related to insulin; recombinant human gene-2 H2 relaxin provided by Corthera | 25 fold |  |  |  |  |  |  | 
2 | Europium-labelled H2 relaxin (ligand, human, not fully specified; ends and bridges not checked; also: DTPA cage loaded with Eu^3+, A chain of human gene-2 (H2) relaxin; numbers count on: the A chain; B chain of human gene-2 (H2) relaxin; numbers count on: the B chain; also called Eu-H2 relaxin; Eu-H2) chain 1: {DTPA}-QLYSALANKCCHVGCTKRSLARFC chain 2: DSWMEEVIKLCGRELVRAQIAICGMSTWS |  | 1.56 nM | 3.92 nM | 0.95 nM | 0.8 nM | 1.08 nM | 3.28 nM | 0.73 nM
